Patent US20250009801A1

What was measured:
[1] = molecular target: human CLDN18.2 on cells (human) (UniProt P56856); test: flow cytometry on CHO-GS-hCLDN18.2 cells
[2] = molecular target: human CLDN18.2 on cells (human) (UniProt P56856); test: flow cytometry on SUN601 (SNU601) cells
[3] = molecular target: human CLDN18.2 on cells (human) (UniProt P56856); test: flow cytometry on DAN-G18.2 cells

B1: Hz69H9-2.1 PG Ab (antibody, human IgG1, kappa, V domains shown)
VH: QVQLVQSGAEVKKPGSSVKVSCKASGYSFSSYNIHWVRQAPGQGLEWMGYIAPFQGDARYNQKFKGRVTITADKSTSTAYMELSSLRSEDTAVYYCARLNRGNALDYWGQGTLVTVSS
VL: DIVMTQSPDSLAVSLGERATINCKSSQSLFQSGNQRNYLTWYQQKPGQPPKLLIYWASTRESGVPDRFSGSGSGTDFTLTISSLQAEDVAVYYCQNNYIYPLTFGGGTKVEIKR
EC50 [1]: 8.21 nM
EC50 [2]: 261 nM
EC50 [3]: 6.95 nM
